Here are results for 1 molecule from article PMC5707411.

In this experiment the target is full-length RSV F A2 DS-Cav1 K201N (A-chimera construct) (respiratory syncytial virus subtype A, strain A2).

B1: 5C4 IgG (antibody, V domains shown)
VH: EVQLQQSGAELVKPGASVKLSCTASGFNIKDTFFHWVKQRPEQGLEWIGRIDPADGHTKYDPKFQGKATITADTSSNTAFLQLSSLTSVDTAVYYCATTITAVVPTPYNAMDYWGQGTSVTVSS
VL: DIVLTQSPASLAVSLGQRTTISCRASESVDSFDNSFIHWYQQKPGQPPKLLIFLASSLESGVPARFSGSGSRTDFTLTIDPVEADDAATYYCQQSNEDPFTFGSGTKLEIK
On to B1, for which the EC50 of 5C4 neutralisation of mKate-RSV A2 K201N-mutated virus on HEp-2 cells (viral F without DS-Cav1; antibody format not given) is 0.41 µg/mL.
